Measurements as given in patent US20150361149A1 (FLORIDA STATE UNIVERSITY RESEARCH FOUNDATION, published 2015).
Blank lines part the entries; values can stand above or below the molecule they belong to.

Tests used:
[1] = target: FGFR on NIH 3T3 fibroblasts; experiment: cell-based or functional assay
[2] = target: the molecule itself; experiment: size-exclusion chromatography of peptide fragments
[3] = target: the molecule itself; experiment: X-ray crystal structure (Δ1-10 form)
Text: Crystals of Monofoil-4PΔ1-10 and Difoil-4PΔ1-10 grew in 2 M ammonium sulfate, 0.1 M Na citrate pH 5.5. Crystals were mounted in a stream of gaseous nitrogen at 100 K and diffraction data were collected at either the Southeast Regional Collaborative Access Team 22-BM beam line (λ=1.00 Å) at the Advanced Photon Source, Argonne National Laboratory, using a MarCCD 300 detector (Mar USA) or at the X25 beam line of the National Synchrotron Light Source at Brookhaven National Laboratory, using an ADSC Q315 CCD detector. Each dataset was collected from a single crystal except Monofoil-4PΔ1-10 and Difoil-4PΔ1-10. Datasets from two crystals of Monofoil-4PΔ1-10 were combined for better completion and redundancy.
Diffraction data were indexed, integrated, and scaled using the HKL2000 software package (Otwinowski Z (1993) Proceedings of the CCP4 Study Weekend: “Data Collection and Processing”, eds Sawyer L, Isaacs N, Bailey S (Science and Engineering Research Council, Daresbury Laboratory, England), pp 56-62 and Otwinowski Z and MinorW (1997) Meth Enzymol 276:307-326). Molecular replacement and model building utilized the PHENIX software package (Zwart P H et al. (2008) Methods Mol Biol 426:419-435), with 5% of the data in the reflection files set aside for Rfree calculations (Brunger A T (1992) Nature 355:472-475). […]

mitogenic activity with 3T3 fibroblasts, EC50 [1]: 0.0584 µg/mL
Molecule: human fibroblast growth factor-1 (FGF-1), 140 amino acid form (from UniProt P05230 16-155) (ligand)

Molecule: YNTYISKKHAEKNWFVGLKKNGSCKRGPRTHYGQKAILFLPLPVSSD (peptide, UniProt P05230 109-155, looked up) [peptide fragment of FGF-1, residues 94-140 (third trefoil-fold subdomain)]
binding result [2]: no binding

Molecule: EVYIKSTETGQYLAMDTDGLLYGSQTPNEECLFLERLEENH (peptide, UniProt P05230 68-108, looked up) [peptide fragment of FGF-1, residues 53-93 (second trefoil-fold subdomain)]
binding result [2]: no binding

Molecule: KPKLLYCSNGGHFLRILPDGTVDGTRDRSDQHIQLQLSAESVG (peptide, UniProt P05230 25-67, looked up) [peptide fragment of FGF-1, residues 10-52 (first trefoil-fold subdomain)]
binding result [2]: no binding

B1: Difoil-4PΔ1-10 (other)
chain: HHHHHHPVLLKSTETGQYLRINPDGTVDGTRDRSDPHIQFQISPEGNGEVLLKSTETGQYLRINPDGTVDGTRDRSDPHIQFQISPEGNG
notes: Form used for crystallisation (PDB 3OGF); Three chains make two β-trefoil folds; also called Difoil-4P* (Δ1-10 mutant form)
binding result [3]: binds
